Holding throughout (assay): cell-based or functional assay
Experiment [1] concerns the target interleukin (IL)-8 (human) (UniProt P10145).
Experiment [2] deals with tissue inhibitor of metalloproteinases-1 (human) (UniProt P01033).
For experiment [3], the target named is monocyte chemoattractant protein-1 (human) (UniProt P13500).
Experiment [4] deals with interleukin (IL)-6 (human) (UniProt P05231).
interleukin (IL)-6 (human), sequence (P05231 30-212 limits assumed): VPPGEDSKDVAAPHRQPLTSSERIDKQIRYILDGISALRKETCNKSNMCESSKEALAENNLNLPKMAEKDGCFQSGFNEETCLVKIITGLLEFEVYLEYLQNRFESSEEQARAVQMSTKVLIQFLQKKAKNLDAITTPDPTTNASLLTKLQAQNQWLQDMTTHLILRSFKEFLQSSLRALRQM

interleukin (IL)-8 (human), sequence (P10145 28-99 limits assumed): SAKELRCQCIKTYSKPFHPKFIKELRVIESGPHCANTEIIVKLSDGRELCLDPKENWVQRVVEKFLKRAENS
tissue inhibitor of metalloproteinases-1 (human), sequence (P01033 24-207 limits assumed): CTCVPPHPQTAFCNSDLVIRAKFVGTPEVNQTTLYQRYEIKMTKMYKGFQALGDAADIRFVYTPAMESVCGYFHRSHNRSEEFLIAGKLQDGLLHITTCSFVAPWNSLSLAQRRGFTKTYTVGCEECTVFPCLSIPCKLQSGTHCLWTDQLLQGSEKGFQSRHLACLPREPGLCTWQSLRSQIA
monocyte chemoattractant protein-1 (human), sequence (P13500 24-99 limits assumed): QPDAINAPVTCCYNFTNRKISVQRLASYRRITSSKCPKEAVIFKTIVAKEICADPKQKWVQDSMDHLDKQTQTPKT

“IL-8 inhibitory antibody (R&D Systems AB208NA)” displayed a decrease in in vitro ovarian cancer cell homing toward adipocytes (Matrigel plug, fluorescence) in experiment [1] greater than 50%. For the substance “TIMP-1-specific inhibitory antibody (R&D Systems AF970)”, in experiment [2], the decrease in in vitro ovarian cancer cell homing toward adipocytes (Matrigel plug, fluorescence) was greater than 50%. As for “MCP-1 inhibitory antibody (R&D Systems AB279NA)”, in experiment [3], the decrease in in vitro ovarian cancer cell homing toward adipocytes (Matrigel plug, fluorescence) was greater than 50%. Substance “IL-6 inhibitory antibody (R&D Systems AB206NA)” showed a decrease in in vitro ovarian cancer cell homing toward adipocytes (Matrigel plug, fluorescence) in experiment [4] greater than 50%.

Values taken from US20140363522A1.
